According to paper PMC9482650, “Quantitative fragmentomics allow affinity mapping of interactomes” (Nature Communications, 2022):

Key:
Test in all cases: holdup assay
Set-up in all cases: key: below the threshold = too weak to quantify, mostly under pKd 3.1 to 4
Conditions in all cases: plain residues with an end cap or a label only (N-terminal biotin on a linker: ado-ado)
[1] = biological target: AHNAK1, Q09666
[2] = biological target: ARHGEF12, Q9NZN5-2
[3] = biological target: T1, CARD11, Q9BXL7
T1 sequence (Q9BXL7 662-765, limits assumed, looked up): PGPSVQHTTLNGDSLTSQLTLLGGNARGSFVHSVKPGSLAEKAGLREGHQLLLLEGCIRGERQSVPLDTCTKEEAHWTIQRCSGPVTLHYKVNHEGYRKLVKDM

[4] = biological target: DLG2_3, Q15700
[5] = biological target: T2, HTRA3, P83110
T2 sequence (P83110 354-453, limits assumed, looked up): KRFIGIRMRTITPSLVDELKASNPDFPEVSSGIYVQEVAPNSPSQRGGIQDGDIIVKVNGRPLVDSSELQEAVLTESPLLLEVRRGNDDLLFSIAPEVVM

[6] = biological target: T3, HTRA4, P83105
T3 sequence (P83105 378-476, limits assumed, looked up): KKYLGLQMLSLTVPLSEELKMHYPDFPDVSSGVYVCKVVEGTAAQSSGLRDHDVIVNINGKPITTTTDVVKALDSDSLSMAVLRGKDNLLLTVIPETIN

[7] = biological target: IL16_1, Q14005
[8] = biological target: Inadl_3, Q8NI35
[9] = biological target: Inadl_4, Q8NI35
[10] = biological target: Inadl_9, Q8NI35
[11] = biological target: T4, LNX2_3, Q8N448
T4 sequence (Q8N448 463-564, limits assumed, looked up): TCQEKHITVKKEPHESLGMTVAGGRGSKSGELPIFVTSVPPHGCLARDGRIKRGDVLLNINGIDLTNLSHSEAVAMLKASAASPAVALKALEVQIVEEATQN

[12] = biological target: MAGI2_5, Q86UL8
[13] = biological target: MAST1, Q9Y2H9
[14] = biological target: T5, MPP7, Q5T2T1
T5 sequence (Q5T2T1 134-230, limits assumed, looked up): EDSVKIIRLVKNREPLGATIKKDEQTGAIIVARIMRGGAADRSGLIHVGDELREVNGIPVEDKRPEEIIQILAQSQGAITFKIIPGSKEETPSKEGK

[15] = biological target: NHERF2_2, Q15599
[16] = biological target: NHERF4_1, Q86UT5-2
[17] = biological target: NOS1, P29475
[18] = biological target: T6, PARD3B_1, Q8TEW8
T6 sequence (Q8TEW8 196-299, limits assumed, looked up): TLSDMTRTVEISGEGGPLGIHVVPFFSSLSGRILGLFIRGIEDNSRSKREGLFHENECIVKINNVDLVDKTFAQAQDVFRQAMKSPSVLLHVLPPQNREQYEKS

[19] = biological target: PARD3_3, Q8TEW0
[20] = biological target: T7, PCLO, Q9Y6V0
T7 sequence (Q9Y6V0 4491-4600, limits assumed, looked up): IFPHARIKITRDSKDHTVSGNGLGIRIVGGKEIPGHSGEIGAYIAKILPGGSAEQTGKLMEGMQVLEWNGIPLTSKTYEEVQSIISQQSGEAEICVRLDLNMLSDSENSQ

[21] = biological target: SCRIB_2, Q14160
[22] = biological target: T8, SNTA1, Q13424
T8 sequence (Q13424 82-180, limits assumed, looked up): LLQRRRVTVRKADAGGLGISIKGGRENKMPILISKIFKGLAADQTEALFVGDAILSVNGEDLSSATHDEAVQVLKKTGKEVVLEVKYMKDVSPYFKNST

[23] = biological target: T9, SNTG1, Q9NSN8
T9 sequence (Q9NSN8 52-150, limits assumed, looked up): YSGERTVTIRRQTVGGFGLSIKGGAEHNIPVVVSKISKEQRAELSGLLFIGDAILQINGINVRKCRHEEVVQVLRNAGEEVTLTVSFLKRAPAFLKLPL

[24] = biological target: T10, SNTG2, Q9NY99
T10 sequence (Q9NY99 68-166, limits assumed, looked up): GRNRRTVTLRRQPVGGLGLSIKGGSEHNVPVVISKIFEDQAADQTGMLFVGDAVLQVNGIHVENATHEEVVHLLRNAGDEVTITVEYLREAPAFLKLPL

[25] = biological target: T11, SYNJ2BP, P57105
T11 sequence (P57105 8-110, limits assumed, looked up): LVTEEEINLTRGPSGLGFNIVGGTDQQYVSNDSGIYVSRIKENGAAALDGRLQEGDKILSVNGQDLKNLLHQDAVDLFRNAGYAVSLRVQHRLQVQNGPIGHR

[26] = biological target: TJP1_2, Q07157
Sequence of TJP1_2, Q07157 (Q07157 181-274): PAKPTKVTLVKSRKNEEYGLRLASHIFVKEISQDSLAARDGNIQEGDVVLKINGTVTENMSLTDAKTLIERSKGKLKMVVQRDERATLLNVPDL

Sequence of NOS1, P29475 (P29475 9-101): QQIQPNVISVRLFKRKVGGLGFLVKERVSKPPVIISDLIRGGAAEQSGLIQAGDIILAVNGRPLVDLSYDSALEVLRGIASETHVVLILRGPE
Sequence of SCRIB_2, Q14160 (Q14160 857-960): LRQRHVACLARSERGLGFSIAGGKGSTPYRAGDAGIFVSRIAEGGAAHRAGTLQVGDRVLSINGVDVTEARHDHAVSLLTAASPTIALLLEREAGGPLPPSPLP
Sequence of IL16_1, Q14005 (Q14005 210-306): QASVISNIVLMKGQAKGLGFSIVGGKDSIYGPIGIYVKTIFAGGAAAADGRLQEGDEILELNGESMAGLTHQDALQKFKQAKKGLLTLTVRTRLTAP
Sequence of NHERF4_1, Q86UT5-2 (Q86UT5 other isoform, or with tags, fused parts or gaps): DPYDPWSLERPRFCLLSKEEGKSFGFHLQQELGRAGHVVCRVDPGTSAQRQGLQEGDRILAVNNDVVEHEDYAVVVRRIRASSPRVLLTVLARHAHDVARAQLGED
Sequence of Inadl_4, Q8NI35 (Q8NI35 547-651): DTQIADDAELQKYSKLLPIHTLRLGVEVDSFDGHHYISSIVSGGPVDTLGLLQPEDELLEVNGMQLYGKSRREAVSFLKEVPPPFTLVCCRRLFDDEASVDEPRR
Sequence of NHERF2_2, Q15599 (Q15599 142-238): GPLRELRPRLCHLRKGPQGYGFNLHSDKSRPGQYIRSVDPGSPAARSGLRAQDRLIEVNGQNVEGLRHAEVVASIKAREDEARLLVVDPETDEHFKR
Sequence of ARHGEF12, Q9NZN5-2 (Q9NZN5 other isoform, or with tags, fused parts or gaps): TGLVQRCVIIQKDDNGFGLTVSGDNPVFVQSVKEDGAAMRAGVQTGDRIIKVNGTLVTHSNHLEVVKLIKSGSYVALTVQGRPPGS
Sequence of AHNAK1, Q09666 (Q09666 4-100): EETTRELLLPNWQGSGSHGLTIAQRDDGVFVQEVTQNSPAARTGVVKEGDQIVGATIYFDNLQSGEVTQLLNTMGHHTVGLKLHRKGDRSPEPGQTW
Sequence of MAST1, Q9Y2H9 (Q9Y2H9 962-1065): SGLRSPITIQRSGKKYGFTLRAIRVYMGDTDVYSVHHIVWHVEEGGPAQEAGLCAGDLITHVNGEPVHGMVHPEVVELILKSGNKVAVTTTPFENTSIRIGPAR
Sequence of Inadl_9, Q8NI35 (Q8NI35 1530-1615): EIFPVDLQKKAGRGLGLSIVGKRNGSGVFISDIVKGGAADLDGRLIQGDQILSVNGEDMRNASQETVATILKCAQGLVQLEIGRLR
Sequence of MAGI2_5, Q86UL8 (Q86UL8 915-1017): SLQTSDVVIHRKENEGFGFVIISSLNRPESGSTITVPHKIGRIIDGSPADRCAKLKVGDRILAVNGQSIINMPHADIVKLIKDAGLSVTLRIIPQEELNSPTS
Sequence of PARD3_3, Q8TEW0 (Q8TEW0 582-685): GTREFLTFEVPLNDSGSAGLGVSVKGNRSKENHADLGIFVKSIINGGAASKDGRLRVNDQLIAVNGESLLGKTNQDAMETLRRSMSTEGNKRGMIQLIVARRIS
Sequence of Inadl_3, Q8NI35 (Q8NI35 359-469): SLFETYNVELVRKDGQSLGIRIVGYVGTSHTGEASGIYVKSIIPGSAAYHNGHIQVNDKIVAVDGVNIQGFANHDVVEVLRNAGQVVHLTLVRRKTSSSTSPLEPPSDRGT

Binder: LPPPESESKV [KCNJ9, Q92806]
- pKd [1]: below the threshold
- pKd [2]: below the threshold
- pKd [3]: 3.73
- pKd [4]: 3.7
- pKd [5]: below the threshold
- pKd [6]: below the threshold
- pKd [7]: 4.11
- pKd [8]: below the threshold
- pKd [9]: below the threshold
- pKd [10]: below the threshold
- pKd [11]: below the threshold
- pKd [12]: below the threshold
- pKd [13]: 4.29
- pKd [14]: below the threshold
- pKd [15]: below the threshold
- pKd [16]: below the threshold
- pKd [17]: below the threshold
- pKd [18]: below the threshold
- pKd [19]: below the threshold
- pKd [20]: below the threshold
- pKd [21]: below the threshold
- pKd [22]: 3.99
- pKd [23]: 4.31
- pKd [24]: 3.74
- pKd [25]: 4.02
- pKd [26]: below the threshold

Binder: KKTPVSRSHL [SLC22A3, O75751]
- pKd [1]: below the threshold
- pKd [2]: 4.2
- pKd [3]: below the threshold
- pKd [4]: below the threshold
- pKd [5]: below the threshold
- pKd [6]: 3.81
- pKd [7]: below the threshold
- pKd [8]: below the threshold
- pKd [9]: below the threshold
- pKd [10]: below the threshold
- pKd [11]: below the threshold
- pKd [12]: below the threshold
- pKd [13]: below the threshold
- pKd [14]: below the threshold
- pKd [15]: 3.92
- pKd [16]: 3.94
- pKd [17]: below the threshold
- pKd [18]: below the threshold
- pKd [19]: below the threshold
- pKd [20]: below the threshold
- pKd [21]: below the threshold
- pKd [22]: 3.53
- pKd [23]: below the threshold
- pKd [24]: 3.48
- pKd [25]: below the threshold
- pKd [26]: below the threshold

Binder: HDDYFYHDEL [RCN2, Q14257]
- pKd [1]: below the threshold
- pKd [2]: below the threshold
- pKd [3]: below the threshold
- pKd [4]: below the threshold
- pKd [5]: below the threshold
- pKd [6]: below the threshold
- pKd [7]: below the threshold
- pKd [8]: 3.85
- pKd [9]: below the threshold
- pKd [10]: below the threshold
- pKd [11]: below the threshold
- pKd [12]: below the threshold
- pKd [13]: 4.35
- pKd [14]: below the threshold
- pKd [15]: 4.11
- pKd [16]: 4.1
- pKd [17]: below the threshold
- pKd [18]: 3.7
- pKd [19]: 3.96
- pKd [20]: below the threshold
- pKd [21]: below the threshold
- pKd [22]: 3.6
- pKd [23]: below the threshold
- pKd [24]: below the threshold
- pKd [25]: below the threshold
- pKd [26]: below the threshold

Binder: KAEEKPPSKV [SCN4B, Q8IWT1]
- pKd [1]: below the threshold
- pKd [2]: below the threshold
- pKd [3]: below the threshold
- pKd [4]: below the threshold
- pKd [5]: below the threshold
- pKd [6]: 3.93
- pKd [7]: below the threshold
- pKd [8]: below the threshold
- pKd [9]: below the threshold
- pKd [10]: 3.8
- pKd [11]: below the threshold
- pKd [12]: 3.51
- pKd [13]: 3.69
- pKd [14]: below the threshold
- pKd [15]: below the threshold
- pKd [16]: below the threshold
- pKd [17]: below the threshold
- pKd [18]: below the threshold
- pKd [19]: below the threshold
- pKd [20]: below the threshold
- pKd [21]: below the threshold
- pKd [22]: below the threshold
- pKd [23]: below the threshold
- pKd [24]: below the threshold
- pKd [25]: below the threshold
- pKd [26]: below the threshold
